The target in experiment [1] is F-actin (actin filaments) from rabbit skeletal muscle (rabbit) (UniProt P68135). In words: co-sedimentation.
The target of experiment [2] is monomeric actin from rabbit skeletal muscle (rabbit) (UniProt P68135). Kind of experiment: pull-down.

The source of these data is article PMC2115109.

Values joined by “and” are separate entries in the source; they are usually repeats but may differ in a detail not shown here. Identical values can stand only once.

Chain of CT28N, 28-kD chymotryptic fragment from the NH2-terminal half of human plasma gelsolin (domain or fragment) (P06396 151-406): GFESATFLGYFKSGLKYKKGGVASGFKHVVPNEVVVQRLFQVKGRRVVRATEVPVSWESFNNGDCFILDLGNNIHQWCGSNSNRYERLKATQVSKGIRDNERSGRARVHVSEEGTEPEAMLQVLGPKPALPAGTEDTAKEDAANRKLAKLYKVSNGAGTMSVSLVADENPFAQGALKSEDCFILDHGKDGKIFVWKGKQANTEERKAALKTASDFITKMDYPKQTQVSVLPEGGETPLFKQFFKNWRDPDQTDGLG
Chain of CT45N, 45-kD NH2-terminal half chymotryptic fragment of human plasma gelsolin (domain or fragment) (P06396 1-406): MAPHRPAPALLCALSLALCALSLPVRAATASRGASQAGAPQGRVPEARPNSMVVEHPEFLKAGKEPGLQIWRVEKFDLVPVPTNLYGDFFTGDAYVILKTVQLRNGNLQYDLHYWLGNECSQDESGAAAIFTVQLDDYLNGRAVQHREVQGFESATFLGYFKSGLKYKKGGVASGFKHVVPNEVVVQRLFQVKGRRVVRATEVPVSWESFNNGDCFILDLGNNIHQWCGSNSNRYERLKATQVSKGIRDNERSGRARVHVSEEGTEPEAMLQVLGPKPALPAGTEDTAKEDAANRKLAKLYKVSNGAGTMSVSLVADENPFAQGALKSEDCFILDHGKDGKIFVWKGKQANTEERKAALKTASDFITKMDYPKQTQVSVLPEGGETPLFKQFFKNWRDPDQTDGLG

The term Kd denotes a measure of binding affinity in units of concentration. Lower therefore signals a tighter complex. As for “CT28N, 28-kD chymotryptic fragment from the NH2-terminal half of human plasma gelsolin (domain or fragment)”, in experiment [1], the Ka was 5e+06 M⁻¹; the dissociation constant (Kd) is 200 nM and 280 nM; the percent of input sedimented was found to be 100%; the percent sedimented is 100%.
Take “CT45N, 45-kD NH2-terminal half chymotryptic fragment of human plasma gelsolin (domain or fragment)”: the radioactivity on the beads in experiment [2] was 540 cpm. Further, in experiment [1], the percent sedimented is 67%.
